# Experimental data published in patent US20110028697.
# T1: MazE (E. coli), MazE from Escherichia coli with His-Tag and Myc-Tag at the N-terminal end
# T1 chain: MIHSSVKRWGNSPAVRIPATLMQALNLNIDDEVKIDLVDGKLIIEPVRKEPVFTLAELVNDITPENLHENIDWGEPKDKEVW
# Target: T1, MazE (E. coli), MazE from Escherichia …
protein,measurement,value
"MazF (E. coli), N-terminally His-Tagged MazF from Escherichia coli (protein) MVSRYVPDMGDLIWVDFDPTKGSEQAGHRPAVVLSPFMYNNKTGMCLCVPCTTQSKGYPFEVVLSGQERDGVALADQVKSIAWRARGATKKGTVAPEELQLIKAKINVLIG","degradation of the substrate MazG30 by the ribonuclease activity of MazF (E. coli), gel electrophoresis","When MazE and MazF were added to the substrate MazG30, degradation of the substrate MazG30 was inhibited and the band at the position corresponding to a 14mer polypeptide was decreased"
